# Values of other authors in PMC12298957.
# Molecular target: FGFR2 (Homo sapiens) (UniProt P21802)
# Sequence of UniProt P21802 (P21802 22-377): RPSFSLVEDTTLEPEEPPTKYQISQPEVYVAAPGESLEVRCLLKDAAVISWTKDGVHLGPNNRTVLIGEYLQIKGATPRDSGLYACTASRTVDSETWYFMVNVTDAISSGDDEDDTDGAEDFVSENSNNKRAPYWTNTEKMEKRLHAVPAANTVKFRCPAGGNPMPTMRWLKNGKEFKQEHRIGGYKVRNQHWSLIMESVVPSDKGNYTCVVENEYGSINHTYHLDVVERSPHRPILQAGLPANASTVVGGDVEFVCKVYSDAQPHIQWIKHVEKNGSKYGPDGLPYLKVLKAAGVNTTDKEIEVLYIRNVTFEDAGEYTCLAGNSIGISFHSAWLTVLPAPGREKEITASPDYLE
substance,measurement,value
WRARVPL peptide,Kd,1400 nM
